Test results as given in US20260049134A1 (UNIVERSITY OF FLORIDA RESEARCH FOUNDATION, published 2026).

T1: PTPRG-Fc (ECD of human PTPRG, aa 20-736, fused to human Fc gamma 1) (human, UniProt P23470 20-736)
T1 construct: Made in-house in Expi293 cells; Used in ELISA and SPR; also called recombinant PTPRG-Fc; PTRPG; not shown: human IgG1 Fc (Fc gamma 1) after the hinge
T1 sequence: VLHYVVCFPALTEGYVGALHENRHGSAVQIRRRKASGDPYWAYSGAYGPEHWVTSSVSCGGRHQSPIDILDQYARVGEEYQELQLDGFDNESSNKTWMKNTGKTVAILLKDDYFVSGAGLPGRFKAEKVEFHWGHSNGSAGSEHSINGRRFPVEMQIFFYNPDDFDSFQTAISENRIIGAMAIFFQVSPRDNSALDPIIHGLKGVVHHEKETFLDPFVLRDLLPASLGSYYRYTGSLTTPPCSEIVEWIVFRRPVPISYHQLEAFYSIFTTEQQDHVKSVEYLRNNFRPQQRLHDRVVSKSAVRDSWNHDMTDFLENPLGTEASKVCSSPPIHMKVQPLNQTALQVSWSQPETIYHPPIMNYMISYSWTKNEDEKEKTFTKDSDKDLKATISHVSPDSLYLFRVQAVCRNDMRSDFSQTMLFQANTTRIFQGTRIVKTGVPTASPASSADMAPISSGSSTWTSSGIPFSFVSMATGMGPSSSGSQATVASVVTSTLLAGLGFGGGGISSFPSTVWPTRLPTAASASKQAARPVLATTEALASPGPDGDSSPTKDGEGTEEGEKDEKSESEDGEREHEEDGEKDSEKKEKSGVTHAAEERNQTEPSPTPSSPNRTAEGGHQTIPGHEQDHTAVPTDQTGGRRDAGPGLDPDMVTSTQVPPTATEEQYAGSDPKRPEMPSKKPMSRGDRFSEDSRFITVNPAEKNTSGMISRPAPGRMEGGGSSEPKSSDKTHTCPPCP

T2: ANXA1
T2 construct: coated protein in the ELISA; also called ANXA1-His (R&D Systems)
T2 chain: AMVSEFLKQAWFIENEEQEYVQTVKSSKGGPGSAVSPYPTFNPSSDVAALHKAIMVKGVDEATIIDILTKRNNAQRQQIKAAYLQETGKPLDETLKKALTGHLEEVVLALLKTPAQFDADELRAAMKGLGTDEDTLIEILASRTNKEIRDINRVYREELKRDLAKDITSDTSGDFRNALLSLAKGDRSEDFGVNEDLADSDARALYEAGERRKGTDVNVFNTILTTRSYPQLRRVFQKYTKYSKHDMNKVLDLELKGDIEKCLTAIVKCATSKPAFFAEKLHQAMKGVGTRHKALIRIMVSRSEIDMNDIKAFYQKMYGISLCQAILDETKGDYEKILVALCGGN

T3: IGSF11 (VSIG3)
T3 construct: coated protein in the ELISA; also called IGSF11-Fc (R&D Systems)
T3 chain: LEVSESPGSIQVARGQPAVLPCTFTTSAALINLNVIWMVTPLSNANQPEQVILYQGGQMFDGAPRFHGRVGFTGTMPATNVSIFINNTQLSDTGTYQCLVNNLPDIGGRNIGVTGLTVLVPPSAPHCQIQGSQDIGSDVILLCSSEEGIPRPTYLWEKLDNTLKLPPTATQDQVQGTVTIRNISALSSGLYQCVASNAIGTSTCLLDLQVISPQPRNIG

T4: SLAMF7
T4 construct: coated protein in the ELISA; also called SLAMF7-StrepTag
T4 chain: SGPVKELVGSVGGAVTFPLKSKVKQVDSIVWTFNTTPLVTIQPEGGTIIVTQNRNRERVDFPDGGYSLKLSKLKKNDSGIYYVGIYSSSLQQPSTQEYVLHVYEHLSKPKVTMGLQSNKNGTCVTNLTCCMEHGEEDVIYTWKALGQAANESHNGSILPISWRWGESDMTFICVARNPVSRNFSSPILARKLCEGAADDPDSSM


Columns and labels:
[1] = biological target: T1, PTPRG-Fc (ECD of human PTPRG, aa …); test: ELISA on coated PTPRG-Fc, 150 ng IgG1; None 0.117
Experimental: (§1) Recombinant purified ECDs (50-150 ng) of each putative target protein were coated, incubated with 150 ng of the indicated primary antibody, and binding was detected using a peroxidase-conjugated anti-human Fab secondary antibody. Heatmap represents averages of technical triplicates. (8B) Target validation via siRNA knockdown. H929 cells were transfected with siRNA pools targeting the putative antibody targets ICAM1, CADM1, and PTPRG. Cells were then subjected to cognate IgG binding analysis via flow cytometry. (NT, non-targeting siRNA).
(§2) ELISA ELISA was conducted as described previously. Briefly, 50-150 ng of antigen was coated overnight in half-area 96-well plates at 4° C., blocked with 3% BSA at 37° C. for 1 h, and 150 ng of chimeric rabbit/human IgG1 was added, incubating for 2 h at 37° C. […] After incubating at 37° C. for 15 min-1 h (depending on intensity of controls), data were acquired using a SpectraMax M5 plate reader (Molecular Devices).

ANXA1 = biological target: T2, ANXA1; test: ELISA on coated ANXA1-His, 150 ng IgG1; None 0.098
Experimental: as §1, §2

IGSF11 (VSIG3) = biological target: T3, IGSF11 (VSIG3); test: ELISA on coated IGSF11-Fc, 150 ng IgG1; None 0.090
Experimental: as §1, §2

PTP4A3 (PRL-3) = biological target: T5, PTP4A3 (PRL-3); test: ELISA on coated His-PTP4A3, 150 ng IgG1; None 0.085
T5 construct: coated protein in the ELISA; also called His-PTP4A3 (R&D Systems)
T5 sequence (chain, as listed by the source limits assumed): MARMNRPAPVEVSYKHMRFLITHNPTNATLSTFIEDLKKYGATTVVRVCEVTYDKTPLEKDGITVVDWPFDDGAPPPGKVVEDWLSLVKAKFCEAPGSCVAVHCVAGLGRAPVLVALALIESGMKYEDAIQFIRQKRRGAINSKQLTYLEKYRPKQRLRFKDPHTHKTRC
Experimental: as §1, §2

SLAMF7 = biological target: T4, SLAMF7; test: ELISA on coated SLAMF7-StrepTag, 150 ng IgG1; None 0.047
Experimental: as §1, §2

| ELISA Absorbance (405 nm-570 nm) [1] | ELISA Absorbance (405 nm-570 nm) (ANXA1) | ELISA Absorbance (405 nm-570 nm) (IGSF11 (VSIG3)) | ELISA Absorbance (405 nm-570 nm) (PTP4A3 (PRL-3)) | ELISA Absorbance (405 nm-570 nm) (SLAMF7) | Binder |
| --- | --- | --- | --- | --- | --- |
| 0.096 | 0.075 | 0.078 | 0.065 | 0.051 | HW-97 chimeric rabbit-human IgG1 LA/LA/PG (antibody, V domains shown, Fc-silenced (L234A/L235A/P329G) IgG1, lambda; Alexa Fluor 647-labeled in single-step flow cytometry; Prototype of cluster C-97) VH: QKQLVESGGRLVTPGTPLTLTCTVTGIDLSSHGMSWVRQAPGKGLEWIGVIYPSGSTWYASWARGRFTISKTSTTVDLKMTSLTTEDTATHFCARGDVGGADNNIWGPGTLVTVSS VL: SFVLTQPASVQVDLGQTVSLTCTAETLSRSYASWYQQKPGQAPVLLIYRDTSRPSGVPDRFSGSSSGNTATLTISGAQAGDEADYYCATSDGSGSSYQYVFGGGTQLTVTG |
| 0.097 | 0.066 | 0.066 | 0.065 | 0.046 | HW-101 chimeric rabbit-human IgG1 LA/LA/PG (antibody, V domains shown, Fc-silenced (L234A/L235A/P329G) IgG1, lambda; Alexa Fluor 647-labeled in single-step flow cytometry; Cluster C-97) VH: QEQLVESGGRLVTPGTPLTLTCKASGFSLGKYDMSWVRQAPGKGLEWIGTIYAGSGSTWYASWAKGRFTISKTSTTVDLKMTSLTTEDTATYFCARDFLGVNSIWGPGTLVTISS VL: SFVLTQPASVQVNLGQTVSLTCTADTLSRSYASWYQQKPDQAPVLLIHRDTSRPSGVPDRFSGSNSGNTATLTISGAQAGDEADYYCATSDGSGSNFHFVFGGGTQLTVTG |
| 0.071 | 0.073 | 0.075 | 0.078 | 0.048 | HW-113 chimeric rabbit-human IgG1 LA/LA/PG (antibody, V domains shown, Fc-silenced (L234A/L235A/P329G) IgG1, lambda; Alexa Fluor 647-labeled in single-step flow cytometry) VH: QKQLVESGGGLVQPGGSLTLTCTVSGFSLNKYYMGWFRQAPGKGLEWIGVISRSGDTYYSSWAKGRFTISKASTTVDLRITSPTTEDTATYFCARDASSPGFHGDRLDLWGQGTLVTVSS VL: SFVLTQPASVQVNLGQTVSLTCTADTLSRSYASWYQQKPGQAPVLLIYRDTSRPSGVPDRFSGSSSGNTATLTISGAQAGDEADYYCATSDGIGSNYLWVFGGGTQLTVTG |
| 0.122 | 0.065 | 0.065 | 0.08 | 0.054 | HW-81 chimeric rabbit-human IgG1 LA/LA/PG (antibody, V domains shown, Fc-silenced (L234A/L235A/P329G) IgG1, lambda; Alexa Fluor 647-labeled in single-step flow cytometry; Cluster C-45) VH: QKQLVESGGGLVTPGGTLTLTCTVSGFSLSSNGVSWVRQAPGKGLEYIGLIRSIGSTYYATWAKGRFTISKTSTTVDLKITSPTTEDTATYFCARGGYRNGFKLWGPGTLVTVSS VL: QPVLTQSPSVSAALGASAKLTCTLSSAHKTYYIEWYQQQHPGKAPRYLMQLQSDGSYTKGTGVPDRFSGSSSGADRYLIISSVQAEDEADYICGVIDSAVYVFGGGTQLTVTG |
